Assay results from publication PMC3108429.

Experiments:
[1] = molecular target: taxol-stabilized microtubules; test: bead binding to microtubules counted by DIC microscopy
[2] = molecular target: dynamic microtubules grown from GMPCPP-stabilized microtubule seeds (bovine); test: constant-force laser trap bead motility assay

Substance: Dsn1-HIS-FLAG kinetochore particles from the spc105-15 mutant strain (from UniProt P40568 1-576; P53148 1-917) (complex)
- microtubule-bound beads per field (beads per field) [1]: 4

Substance: Dsn1-HIS-FLAG kinetochore particles from the ndc80-1 mutant strain (from UniProt P40568 1-576; P40460 1-691) (complex)
- microtubule-bound beads per field (beads per field) [1]: 2

Substance: Dsn1-HIS-FLAG kinetochore particles from wild-type cells (from UniProt P40568 1-576) (complex)
- mean attachment lifetime at 1 pN tension [2]: 21 min
- mean attachment lifetime at 5 pN tension [2]: 50 min
- microtubule-bound beads per field (beads per field) [1]: 22

Substance: Dsn1-HIS-FLAG kinetochore particles from the dad1-1 mutant strain (from UniProt P40568 1-576; Q12248 1-94) (complex)
- microtubule-bound beads per field (beads per field) [1]: 18
